In publication PMC4807369:

Biological target: IrmA secreted from E. coli MG1655 carrying a plasmid encoding irmA (strain MS5667) (Escherichia coli)
Assay: native gel or EMSA

Substance: IrmA secreted from E. coli MG1655 carrying a plasmid encoding irmA (strain MS5667) (natural protein)
- stoichiometry N: 2
